Data: paper PMC11098746 (2024)

What was measured:
Assay in all cases: AVEXIS screen signal:noise (double-corrected)
ADP317 = biological target: T1, ADP317
T1 chain: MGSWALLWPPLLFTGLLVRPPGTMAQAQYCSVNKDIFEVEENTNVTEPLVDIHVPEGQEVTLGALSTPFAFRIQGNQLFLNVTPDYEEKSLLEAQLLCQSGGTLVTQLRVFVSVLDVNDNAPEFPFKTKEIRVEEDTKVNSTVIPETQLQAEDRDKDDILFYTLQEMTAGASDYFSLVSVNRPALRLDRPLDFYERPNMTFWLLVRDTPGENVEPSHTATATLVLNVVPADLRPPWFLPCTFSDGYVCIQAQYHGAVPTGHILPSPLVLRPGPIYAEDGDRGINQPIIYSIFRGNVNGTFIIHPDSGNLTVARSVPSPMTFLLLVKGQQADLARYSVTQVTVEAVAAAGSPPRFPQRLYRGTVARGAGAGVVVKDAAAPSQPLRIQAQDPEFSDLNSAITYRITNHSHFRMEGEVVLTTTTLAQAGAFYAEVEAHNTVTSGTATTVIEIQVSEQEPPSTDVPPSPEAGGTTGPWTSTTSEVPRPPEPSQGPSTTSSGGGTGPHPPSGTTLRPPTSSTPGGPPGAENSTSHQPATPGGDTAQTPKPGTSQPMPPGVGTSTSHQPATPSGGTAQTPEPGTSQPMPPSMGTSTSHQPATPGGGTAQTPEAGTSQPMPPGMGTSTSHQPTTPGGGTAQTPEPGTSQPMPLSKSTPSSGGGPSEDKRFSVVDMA

ADP141 = biological target: T2, ADP141
T2 chain: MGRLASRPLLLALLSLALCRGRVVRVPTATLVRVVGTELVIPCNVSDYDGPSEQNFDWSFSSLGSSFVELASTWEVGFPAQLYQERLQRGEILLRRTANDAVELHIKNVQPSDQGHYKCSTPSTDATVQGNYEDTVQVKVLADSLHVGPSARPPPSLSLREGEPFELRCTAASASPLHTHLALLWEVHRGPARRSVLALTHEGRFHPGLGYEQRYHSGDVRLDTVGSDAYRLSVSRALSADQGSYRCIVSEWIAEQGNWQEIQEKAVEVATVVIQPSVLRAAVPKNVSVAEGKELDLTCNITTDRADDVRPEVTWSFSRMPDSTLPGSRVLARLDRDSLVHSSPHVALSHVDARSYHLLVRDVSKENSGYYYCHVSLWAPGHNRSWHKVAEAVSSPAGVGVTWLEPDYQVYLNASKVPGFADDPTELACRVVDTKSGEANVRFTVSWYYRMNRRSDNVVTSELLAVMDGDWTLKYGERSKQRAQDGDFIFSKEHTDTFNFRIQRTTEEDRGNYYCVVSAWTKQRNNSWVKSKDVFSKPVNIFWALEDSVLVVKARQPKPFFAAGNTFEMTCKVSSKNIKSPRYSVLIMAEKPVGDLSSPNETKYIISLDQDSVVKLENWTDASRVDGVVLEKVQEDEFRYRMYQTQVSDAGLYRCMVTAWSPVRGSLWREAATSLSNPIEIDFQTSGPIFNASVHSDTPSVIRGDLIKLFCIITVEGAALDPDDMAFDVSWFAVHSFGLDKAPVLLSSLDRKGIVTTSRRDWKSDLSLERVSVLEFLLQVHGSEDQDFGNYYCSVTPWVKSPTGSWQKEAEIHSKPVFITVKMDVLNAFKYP

ADP363 = biological target: ADP363
ADP276 = biological target: T3, ADP276
T3 chain: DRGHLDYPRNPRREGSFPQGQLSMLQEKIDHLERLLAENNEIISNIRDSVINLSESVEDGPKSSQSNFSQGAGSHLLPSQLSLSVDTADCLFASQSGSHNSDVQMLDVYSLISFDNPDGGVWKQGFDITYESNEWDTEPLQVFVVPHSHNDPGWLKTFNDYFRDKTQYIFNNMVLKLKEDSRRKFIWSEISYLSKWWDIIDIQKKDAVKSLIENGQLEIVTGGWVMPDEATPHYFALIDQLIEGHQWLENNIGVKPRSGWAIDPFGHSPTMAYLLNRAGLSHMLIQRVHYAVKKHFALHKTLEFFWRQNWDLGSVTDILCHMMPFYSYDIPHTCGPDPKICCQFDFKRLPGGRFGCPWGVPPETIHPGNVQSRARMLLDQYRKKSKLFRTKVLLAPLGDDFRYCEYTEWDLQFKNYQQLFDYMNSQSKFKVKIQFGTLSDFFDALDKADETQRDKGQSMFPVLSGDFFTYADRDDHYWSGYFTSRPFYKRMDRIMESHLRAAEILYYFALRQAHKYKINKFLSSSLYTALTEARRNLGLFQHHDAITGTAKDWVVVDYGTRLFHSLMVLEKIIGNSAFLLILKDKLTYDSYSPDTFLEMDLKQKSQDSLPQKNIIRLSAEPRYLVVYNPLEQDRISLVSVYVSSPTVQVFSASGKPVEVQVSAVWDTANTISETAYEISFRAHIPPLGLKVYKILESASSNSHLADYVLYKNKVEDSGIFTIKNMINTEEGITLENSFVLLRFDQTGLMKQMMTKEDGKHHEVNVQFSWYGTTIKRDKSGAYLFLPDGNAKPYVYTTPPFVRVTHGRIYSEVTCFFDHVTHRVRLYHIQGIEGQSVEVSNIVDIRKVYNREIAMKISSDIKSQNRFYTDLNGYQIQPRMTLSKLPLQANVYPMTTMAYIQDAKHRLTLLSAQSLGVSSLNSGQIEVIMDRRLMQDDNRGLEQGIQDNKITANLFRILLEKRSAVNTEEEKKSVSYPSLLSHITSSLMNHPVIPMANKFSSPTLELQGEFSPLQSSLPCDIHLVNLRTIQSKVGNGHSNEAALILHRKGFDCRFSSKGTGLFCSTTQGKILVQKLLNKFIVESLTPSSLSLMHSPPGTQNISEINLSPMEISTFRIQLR

B1: ADP227 (protein)
chain: LKVPIENAPFVFNKKENDIKYFLDKETPDDFLSNNAYSLDITLENFPNPFFHPSLCNRYGFKFSYICDPNKILSRNIADQIEEILNYQRRNSKHFCVDKEVPYVLGVALINKLPYGISADTFASQIFEYWKLSNKDCNDGVLLFFVKEDTHFILKWKKGAQSIINFRTATSMNKAFNQYLRKYSLEYSILSAVKLTSQYLTEEIIPPTQTAQK
modifications: bait human Fc-tagged dimer; N-glycosylation sequons mutated in Plasmodium baits
For B1, the binding score (ADP317) was 5.21 and the binding score (ADP141) was 6.72.

B2: ADP168 (protein)
chain: NNIKLNDKENINFESYFNKRTNEENVLNKNVAKEMGDTFVAHKAIELNINHHHVNNDKEFNNNNNNKHQPYYHNEHDKKFSESLKAHMDHLKILNNDLKQHIDKKERNEIYENNDLKKYIIKEIQNNKYLNKEKKSSEDIQILEEHSKKLQKEIHEWLESVNNIEEKSNILKNIKSQLLNNIASLNHALSEEIKNINDIKELQKQQNDLFSENWLYFLPSSSDYLLNEKKKNLYDNQDNSMKDDINNNDKYNIFNYLQNVQDKDNQYEVMKQDNNNIHSGSS
modifications: bait human Fc-tagged dimer; N-glycosylation sequons mutated in Plasmodium baits
B2 was tested, and the binding score (ADP363) was 198 and the binding score (ADP276) was 5.43.
